Laboratory results as given in patent US20200339702A1 (ULTRAHUMAN THIRTEEN, published 2020).

Target: T1, rhesus monkey ERBB3 His tag, monomeric (rhesus monkey (Macaca mulatta), UniProt P21860 20-643 (human entry), limits assumed)
T1 chain: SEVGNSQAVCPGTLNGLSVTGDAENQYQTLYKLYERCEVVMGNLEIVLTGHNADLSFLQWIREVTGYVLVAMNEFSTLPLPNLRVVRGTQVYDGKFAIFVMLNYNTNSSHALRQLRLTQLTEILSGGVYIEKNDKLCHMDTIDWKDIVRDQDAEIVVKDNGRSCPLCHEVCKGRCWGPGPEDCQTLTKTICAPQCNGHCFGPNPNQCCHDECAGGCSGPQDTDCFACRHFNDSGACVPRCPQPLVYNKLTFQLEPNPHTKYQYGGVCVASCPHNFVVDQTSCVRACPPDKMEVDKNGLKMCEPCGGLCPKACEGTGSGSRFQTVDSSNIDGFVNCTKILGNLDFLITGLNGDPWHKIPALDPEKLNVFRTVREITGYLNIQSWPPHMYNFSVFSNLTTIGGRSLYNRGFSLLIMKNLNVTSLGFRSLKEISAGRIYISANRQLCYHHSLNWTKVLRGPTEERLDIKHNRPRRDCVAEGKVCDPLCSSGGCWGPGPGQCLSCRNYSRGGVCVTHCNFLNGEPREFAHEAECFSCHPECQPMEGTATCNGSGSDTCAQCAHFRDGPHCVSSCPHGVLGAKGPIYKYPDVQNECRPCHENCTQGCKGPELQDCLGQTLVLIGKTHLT
Test: SPR (Biacore), captured IgG, monomeric ERBB3-His analyte

Kd: 0.69 nM
koff: 0.0074 s⁻¹
kon: 1.1e+07 M⁻¹ s⁻¹
B1: 09D12 IgG1null (antibody, V domains shown)
VH: QVQLVESGGGLVKPGGSLRLSCAASGFTFSDYGMSWIRQAPGKGLEWVSTISDGGSYTYYADSVKGRFTISRDNAKNSLYLQMNSLRAEDTAVYYCAREYGDYDGFDYWGQGTLVTVSS
VL: DIQMTQSPSSLSASVGDRVTITCRASQSISSYLNWYQQKPGKAPKLLIYAASSLDSGVPSRFSGSGSGTDFTLTISSLQPEDFATYYCLQYDSTPLTFGGGTKVEIK
notes: Human IgG1null and human Ckappa
